Assay: soluble on expression in E. coli; label from the status in PepcDB or PDB records

Sequence | soluble on expression in E. coli
MPPNANSVGGPKKKNKKNHQRPQQQHQQTQPQPLPEEEQPENPIKKDPKPEVLEEVVEKNREEDKEKVEETVAPTIEKEKNISGDLLDFSSSDKSSLSSRPDSPEEDEDAVPVVNRTTTSPPTSPPSQTAVEQDSLQAEEMLVDMSLDDAPAAPPRKPHQRSAPPPIPSMNTIMTKPRTNSVSYIKGQVVRQSAVEQQTLANQVVDLVAMGMSKGQTQSSQITAEKAEWVQLTSVEKAGEPNERLEVLIVGLCRGYQIWTMSQSGEFEEVLSERQGPVRALKVLPNNLKLRGKKDSFADSRPLIAMVDASSHHPDRQYCSVTIISLLTGREVHKIKFEEPVCAVNVSDQFLVVSLANMAYAYDILTFNEVRTIRTAPSCENSPPALSLSCQLLAYADTSLDLNLQSSGGLAAEVEATSSEKYTDHIYTAMSYFSRSVKTISESVGAGSGSSTKANQPQGVITVLNLAVSGEDESDGVMCHYVAHVDPISYIAFSPDQRLVLSADANANVFNIFLLMPHATSSSLAAVQHLYKLNRGSTPAKVVSTAFSEDCRWLAITTNHATTHVFAVCPFGGKPNQRTHGDTFVNKESRFHRSAGLTDAADVTASIGPSKHRAMADSCSYTKEHPIAVNSPTLAKTNGNSRVGPFPPPLLLVATEKIKDSRYTKEDLSAWAADMTSFSYPAAQASSSPAVAARRRLEVSRMSVMFRMKSYNSTTSTKTAKTTKMLMSMSLVIAKVDPAQGVIVTQHDIKSLRKEGETNMEASPQISVAPVGGWILQRTKNNADMHAPMPSASPLMAFATVETVPAKRIGDEDVWTPHVETRTYLPPHRWIWQGPQFELFEYREDDQPSLMSPGNKGSNASFKSIPVLVGSEAVNITMKTIPADATRIECGSYTSANSYSIDQGSDQPVIGGYSSATNGDYIASIADAMRDISSDDDSTKKKSPKNDDLIEEFFDTESSTPFARNGSGSSSSTGATGGKSLKKKKTPPASAPLPTSSTKSSQKDKKVQNGRERSKDSDDFGTFDMDDI | not soluble
EEPTIGDIYNGKVTSIMQFGCFVQLEGLRKRWEGLVHISELRREGRVANVADVVSKGQRVKVKVLSFTGTKTSLSMKDVDQETGEDLNPNRRRNLV | soluble
PSPQSLDGKNLNFDQQLVIFESENCEFCAQFDRDILAHWQADIPMVATKNTNPPADWTLDKPLFAAPTIVLFREGKEVVRYTGYTGEKENFWQWL | not soluble
MAHGFHASVMAITLDKITLTETTLTNPKAVEYQWVRTLYVQGYQPEAINHYIQTCFGGDETFADLFRRVAMHEESLYLLLQYLSCAPSSREF | soluble
MSLQRKVFPKCQWVGVSEMKGIRPTQEDAVICYPFAPNGIHIFSVLDGHGGSKTSNFAACDLFNNLSKLEKVDENTLSGSVSATLKSLKAQHFNDGSTMALAVITPNRHIFSCHLGDSRTIVVRRDGSISHFTKDHKPDEKSEVKRVLSQHGFILKHRVMGLLAVSSSLGDFEVVGIGHQPVIREWVIDESDKWLVICCDGVFDVLTNEEVGKICQNATSASALAYDIKNIAFELLSQDNISCIAVDLENMAFSNEGHHHHHH | soluble
SQYSAQRDLRMSPGDTVELGGYHFLFDGAKHHEGPNYTSDKGSIHVSRDGKEIATLHPEKRLYTVQSSMMTEAGIDAGFTRDLYVALGEPLENGAWAVRVHVKPFVR | not soluble
MGSSHHHHHHSSGLVPRGSHMRKVKIGELINSLVSEVEAIDASDRPQGDKTKKIKAAALKYKNALFNDKRKFRGKGLEKRISANTFNSYMSRARKRFDDRLHHNFEKNVIKLSEKYPLYSEELSSWLSMPAASIRQHMSRLQAKLKEIMPLAEDLSNIKIGTKNSEAKINKLANKYPEWQFAISDLNSEDWKDKRDYLYKLFQQGSSLLEDLNNLKVNHEVLYHLQLSSAERTSIQQRWANVLSEKKRNVVVIDYPRYMQAIYDIINKPIVSFDLTTRRGMAPLAFALAALSGRRMIEIMLQGEFSVAGKYTVTFLGQAKKRSEDKGISRKIYTLCDATLFVSLVNELRSCPAAADFDEVIKGYGENDTRSENGRINAILATAFNPWVKTFLGDDRRVYKDSRAIYARIAYEMFFRVDPRWKNVDEDVFFMEILGHDDENTQLHYKQFKLANFSRTWRPNVGEENARLAALQKLDSMMPDFARGDAGVRIHETVKQLVEQDPSIKITNSTLRPFNFSTRLIPRYLEFAADALGQFVGENGQWQLKDEAPAIVLPDEEI | soluble
MGSDKIHHHHHHVREVSKEKGKIDLVSGAASTPLTNDKCSPTGFHWTYDTYALANGTGNAVVKNGGKTWFFLTADYAFGHNLQAQTEKVVKANGGEVKGAVKHPFPNSDFSSFLLQAQASGAQIIGLANAGADTINAIKQAKEFGITQAGQQLAGLLVFITDIHSLGLETAQGMMLTTGFYWDMDDQTRAWSKRWSEKMGNGKMPSMVHAGTYSQVLHYLRAAAAAKTDEGIKVADEMRKLPINDFFAKNGKIRADGRMVHDMYLAQVKKPSESKGPWDYYKIVRTIPGDEAYQPLSESTCSLVKK | not soluble
MSLDSKRYTFLLGPGQSCRTATDNFIALYDKRNSLEIKDIENAFNVEALSKEFFGKYKAQYEAFVNYMVDPTNGMRQHFIDTGFDHTGMAADKIRDREEKPIRDYVKKLLGRIVFLHFLQKKGWLGVPASKEWGEGDRDFMLNIFKNANERQKENFLDDILEDLFTEGLDRNRSDQGDLYDTKVEGFRNCRIPYLNGGLFERDILDKKPSHFPASYFNGLLTMLSQYNFTIDENDPNDAEVGVDPEMLGRIFENLLEDNKDKGAFYTPKEIVQYMCRESLIAYLQTDMREEDKECIRQFVTTHDASQLGELKEYIDQKLYDVKICDPAIGSGAFPMGLLRELFFCRSAIEPNIVENAANIKRHIIQNNIYGVDIERGAVDIARLRFWLSLIVDEKSPEALPNLDFKIMQGNSLLEQYKGVDLSTEGHHHHHH | not soluble
MGHHHHHHSHMSAPIVDAPAAEIVYKIISSDGVVSKMSEKAVQQSKTLSNLIENLGYTIENIETRDPIPVTNVNGKTMAKVAEWCEKHKADAIPEDNMNVLKTLTIPEWDQKFLKIEDEALFDLILASNFLDIKGLMYFGCKTVSNMAKGKTTAELREIFGINTDEQDAAEETAQRAAAEVA | soluble
MTIKNVICDIDGVLMHDNVAVPGAAEFLHGIMDKGLPLVLLTNYPSQTGQDLANRFATAGVDVPDSVFYTSAMATADFLRRQEGKKAYVVGEGALIHELYKAGFTITDVNPDFVIVGETRSYNWDMMHKAAYFVANGARFIATNPDTHGRGFYPACGALCAGIEKISGRKPFYVGKPSPWIIRAALNKMQAHSEETVIVGDNLRTDILAGFQAGLETILVLSGVSSLDDIDSMPFRPSWIYPSVAEIDVILEHHHHHH | not soluble
VQASDRTWQSNFIRRWYFTETVEYRPLVKYDASMSWDERTVSALEGAFRSEVRARRVNGPHRDVIVSLDGAEFLVRWLTTGWPRQVAEALHATSRPDILAAPTMSPGARKAAHDAGVGWVDESGAADIHYRNTSTGTTLVIETKGAPPAPLDARIGWRRATLAVCEALLANIAGPTVASVVEATGLSMGSSAQALKFLEKNGHLASATARGPKSARLIVDRDALLDAYAEAADKLRSPISISTGVLWRDPTAGVVKAGQLWDAAGIEWAATSALSASLLAPMQTEIAPMEIYVPGRSWSDLRRAAMAAGLQEIAGGRLILRFFPTPACARLTEQNLQGFRSMLWPRVYADLRTAGVRGEDAAEHLREAMTK | not soluble
MSAATYRKLTSANLLDPVRCRLLISRNRCRVTGVKVPNPLKKVSNFFWRYRAPQAAPGHANPAYFPEADNFED | not soluble
MRAIVFVKATKSSEEGVMPTTELMEAMGKFNEELVNAGIMQSGDGLHPSSKGKRVVFDGDSRTVVNGPFPHTNELVAGFWIWKVKDMDEAVEWVKRCPNPMLEKSEIEIRPMFEMEDFGDAVTPEIAAHVEELRARVGKQ | not soluble
AELPPEFAAQLRKIGDKVYCTWSAPDM | soluble
